Test results: patent US20250163119A1, “COMPOUNDS FOR THE TREATMENT OF DIABETES OR OBESITY” (Eli Lilly and Company, priority 2023, published 2025)
*1 amine or outer side, *2 acyl side, *3 side chain or, on linkers, in order; H or OH if unused. Where no end group is shown, it is not given here. Side-chain parts run from the residue outwards. [ ]: non-standard residue; d: D form. The star is where a group is joined. C20 diacid = O=C(O)CCCCCCCCCCCCCCCCCCC(=O)*; γGlu = O=C(O)[C@H](CCC(=O)[*:2])N[*:1]; αMeL = CC(C)C[C@](C)(N)C(=O)O; AEEA = NCCOCCOCC(=O)O; Aib = CC(C)(N)C(=O)O; Ahx = NCCCCCC(=O)O

T1: human corticotropin-releasing hormone receptor 1 (CRHR1) (human, UniProt P34998 24-415)
T1 sequence (looked up): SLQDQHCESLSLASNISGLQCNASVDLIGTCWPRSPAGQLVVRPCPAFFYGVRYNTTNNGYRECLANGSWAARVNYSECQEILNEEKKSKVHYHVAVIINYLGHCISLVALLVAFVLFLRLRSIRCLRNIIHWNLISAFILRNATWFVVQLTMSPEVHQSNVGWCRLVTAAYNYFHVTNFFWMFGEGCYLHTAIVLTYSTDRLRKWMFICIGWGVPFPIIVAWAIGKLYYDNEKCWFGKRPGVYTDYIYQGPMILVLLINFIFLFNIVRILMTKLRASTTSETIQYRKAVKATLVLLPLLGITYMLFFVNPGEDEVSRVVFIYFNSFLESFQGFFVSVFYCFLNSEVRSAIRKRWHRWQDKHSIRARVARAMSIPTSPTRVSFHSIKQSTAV


Target: T1, human corticotropin-releasing hormone …
Assay: cell-based or functional assay

Row | hCRHR1 cAMP EC50 [µM] | Binder
1 | > 10 | Ac-IVTS[αMeL]D[dV]PTG[αMeL]LQIKLEQERAEKARQQAKENTEILAQV-NH2 (not fully specified (residue 29)) [polypeptide comprising SEQ ID NO:34]
2 | 1.8 | Ac-IVTS[αMeL]D[dV]PTG[αMeL]LQIKLEQERAEKARQQAKENTEILAQV-NH2 (not fully specified (residue 29)) [polypeptide comprising SEQ ID NO:36]
3 | 1.7 | Ac-IVTS[αMeL]D[dV]PTG[αMeL]LQIKLEQERAEKARQQAKENTEILAQV-NH2 (not fully specified (residue 29)) [polypeptide comprising SEQ ID NO:37]
4 | 2.3 | Ac-IVTS[αMeL]D[dV]PI[Aib][αMeL]LQIKLEQERAEKARQQAK([AEEA-AEEA-γGlu-C20 diacid])ENTEILAQV-NH2 (SMILES CC[C@H](C)[C@H](NC(C)=O)C(=O)N[C@H](C(=O)N[C@H](C(=O)N[C@@H](CO)C(=O)N[C@@](C)(CC(C)C)C(=O)N[C@@H](CC(=O)O)C(=O)N[C@@H](C(=O)N1CCC[C@H]1C(=O)N[C@H](C(=O)NC(C)(C)C(=O)N[C@@](C)(CC(C)C)C(=O)N[C@@H](CC(C)C)C(=O)N[C@@H](CCC(N)=O)C(=O)N[C@H](C(=O)N[C@@H](CCCCN)C(=O)N[C@@H](CC(C)C)C(=O)N[C@@H](CCC(=O)O)C(=O)N[C@@H](CCC(N)=O)C(=O)N[C@@H](CCC(=O)O)C(=O)N[C@@H](CCCNC(=N)N)C(=O)N[C@@H](C)C(=O)N[C@@H](CCC(=O)O)C(=O)N[C@@H](CCCCN)C(=O)N[C@@H](C)C(=O)N[C@@H](CCCNC(=N)N)C(=O)N[C@@H](CCC(N)=O)C(=O)N[C@@H](CCC(N)=O)C(=O)N[C@@H](C)C(=O)N[C@@H](CCCCNC(=O)COCCOCCNC(=O)COCCOCCNC(=O)CC[C@H](NC(=O)CCCCCCCCCCCCCCCCCCC(=O)O)C(=O)O)C(=O)N[C@@H](CCC(=O)O)C(=O)N[C@@H](CC(N)=O)C(=O)N[C@H](C(=O)N[C@@H](CCC(=O)O)C(=O)N[C@H](C(=O)N[C@@H](CC(C)C)C(=O)N[C@@H](C)C(=O)N[C@@H](CCC(N)=O)C(=O)N[C@H](C(N)=O)C(C)C)[C@@H](C)CC)[C@@H](C)O)[C@@H](C)CC)[C@@H](C)CC)C(C)C)[C@@H](C)O)C(C)C) [polypeptide comprising SEQ ID NO:42]
5 | > 10 | Ac-IVTS[αMeL]D[dV]PTG[αMeL]LQIKLEQERAEKARQQAKENTEILAQV-NH2 (not fully specified (residue 29)) [polypeptide comprising SEQ ID NO:40]
6 | > 10 | Ac-IVTS[αMeL]D[dV]PTG[αMeL]LQIKLEQERAEKARQQAKENTEILAQV-NH2 (not fully specified (residue 29)) [polypeptide comprising SEQ ID NO:44]
7 | > 10 | Ac-IVTS[αMeL]D[dV]PTG[αMeL]LQIKLEQERAEKARQQAKENTEILAQV-NH2 (not fully specified (residue 29)) [polypeptide comprising SEQ ID NO:32]
8 | 3 | Ac-IVTS[αMeL]D[dV]PTG[αMeL]LQIKLEQERAEKARQQAKENTEILAQV-NH2 (not fully specified (residue 29)) [polypeptide comprising SEQ ID NO:35]

The remaining lines, values behind:

Row | Binder | hCRHR1 cAMP EC50 [µM]
9 | [γGlu]GPSIVTS[αMeL]D[dV]PI[Aib][αMeL]LQIKLEQERAEKARQQAK([AEEA-AEEA-γGlu-C20 diacid])ENTEILAQV-NH2 [polypeptide comprising SEQ ID NO:45] | 3.7
10 | Ac-IVTS[αMeL]D[dV]PTG[αMeL]LQIKLEQERAEKARQQAKENTEILAQV-NH2 (not fully specified (residue 29)) [polypeptide comprising SEQ ID NO:38] | 1.1
11 | Ac-GSPSIVTS[αMeL]DVPT[Aib][αMeL]LQKILEQERAEKARQQAK([Ahx-AEEA-γGlu-C20 diacid])EAAEILAQV-NH2 [polypeptide comprising SEQ ID NO:4] | > 10
12 | Ac-IVTS[αMeL]D[dV]PTG[αMeL]LQIKLEQERAEKARQQAKENTEILAQV-NH2 (not fully specified (residue 29)) [polypeptide comprising SEQ ID NO:43] | > 10
13 | Ac-IVTS[αMeL]D[dV]PTG[αMeL]LQIKLEQERAEKARQQAKENTEILAQV-NH2 (not fully specified (residue 29)) [polypeptide comprising SEQ ID NO:33] | 1.1
14 | Ac-IVTS[αMeL]D[dV]PTG[αMeL]LQIKLEQERAEKARQQAKENTEILAQV-NH2 (not fully specified (residue 29)) [polypeptide comprising SEQ ID NO:39] | 3.7
15 | Ac-IVTS[αMeL]D[dV]PT[Aib][αMeL]LQIKLEQERAEKARQQAK([AEEA-AEEA-γGlu-C20 diacid])ENTEILAQV-NH2 (SMILES CC[C@H](C)[C@H](NC(C)=O)C(=O)N[C@H](C(=O)N[C@H](C(=O)N[C@@H](CO)C(=O)N[C@@](C)(CC(C)C)C(=O)N[C@@H](CC(=O)O)C(=O)N[C@@H](C(=O)N1CCC[C@H]1C(=O)N[C@H](C(=O)NC(C)(C)C(=O)N[C@@](C)(CC(C)C)C(=O)N[C@@H](CC(C)C)C(=O)N[C@@H](CCC(N)=O)C(=O)N[C@H](C(=O)N[C@@H](CCCCN)C(=O)N[C@@H](CC(C)C)C(=O)N[C@@H](CCC(=O)O)C(=O)N[C@@H](CCC(N)=O)C(=O)N[C@@H](CCC(=O)O)C(=O)N[C@@H](CCCNC(=N)N)C(=O)N[C@@H](C)C(=O)N[C@@H](CCC(=O)O)C(=O)N[C@@H](CCCCN)C(=O)N[C@@H](C)C(=O)N[C@@H](CCCNC(=N)N)C(=O)N[C@@H](CCC(N)=O)C(=O)N[C@@H](CCC(N)=O)C(=O)N[C@@H](C)C(=O)N[C@@H](CCCCNC(=O)COCCOCCNC(=O)COCCOCCNC(=O)CC[C@H](NC(=O)CCCCCCCCCCCCCCCCCCC(=O)O)C(=O)O)C(=O)N[C@@H](CCC(=O)O)C(=O)N[C@@H](CC(N)=O)C(=O)N[C@H](C(=O)N[C@@H](CCC(=O)O)C(=O)N[C@H](C(=O)N[C@@H](CC(C)C)C(=O)N[C@@H](C)C(=O)N[C@@H](CCC(N)=O)C(=O)N[C@H](C(N)=O)C(C)C)[C@@H](C)CC)[C@@H](C)O)[C@@H](C)CC)[C@@H](C)O)C(C)C)[C@@H](C)O)C(C)C) [polypeptide comprising SEQ ID NO:41] | 3.7
